Results published in US20120100207A1, “PROCESS FOR PRODUCING LIPOSOMES BY TWO-STEP EMULSIFICATION METHOD UTILIZING OUTER AQUEOUS PHASE CONTAINING SPECIFIC DISPERSING AGENT, PROCESS FOR PRODUCING LIPOSOME DISPERSION OR DRY POWDER THEREOF USING THE PROCESS FOR PRODUCING LIPOSOMES, AND LIPOSOME DISPERSION OR DRY POWDER THEREOF PRODUCED …” (KONICA MINOLTA HOLDINGS, INC., priority 2009, published 2012).

What was measured:
[1] = in an aqueous solvent; background statement; cited from earlier work
[2] = Volume mean particle diameter by dynamic light scattering particle size analyzer; assay type: physicochemical
Method: The volume mean particle diameter of liposomes in the examplesandthecomparativeexamplesdescribedbelowwasmeasured by the following method.
The W1/O emulsion was diluted with a chloroform/hexane mixed solvent (volume ratio: 4/6, the specific gravity was made equal to that of the inner aqueous phase) to 10 times, then a particle size distribution was measured with a dynamic light scattering nanotrack particle size analyzer (UPA-EX150, manufactured by Nikkiso Co., Ltd.), and based on this particle size distribution, a volume mean particle diameter was calculated.
As for the volume mean particle diameter of the specific dispersing agent which forms molecular aggregates, a liposome dispersion (also referred to as a “suspension” hereinafter) prepared in each of the following examples was subjected to the measurement as it was, using the same device. That is to say, a suspension of liposome particles prepared was diluted with a phosphoric acid buffer saline solution (PBS) to 25 times, then a particle size distribution was measured using a dynamic light scattering nanotrack particle size analyzer (UPA-EX150, manufactured by Nikkiso Co., Ltd.), and based on this particle size distribution, a volume mean particle diameter was calculated.

sodium caseinate
volume mean particle diameter of molecular aggregates (submicelles) [1]: about 15 nm | volume mean particle diameter of particles of associated molecular aggregates [1]: 100 to 200 nm | particle size distribution of associated substance of molecular aggregates ([2]; solution containing only casein having a higher concentration): 150 nm | main particle size distribution (volume mean particle diameter) ([2]; solution containing only the dispersing agent): 15 nm
